The values below come from publication PMC9519967.

The test deals with His-tagged Grb3-3 SH2 domain and C-terminal SH3 domain (SH2Δ40CSH3) (human) (UniProt P62993). As to the kind of experiment: MST.

“Sos-C-Tail-6 truncated peptide (without GST) (from UniProt Q07889)” registered a Kd of 145 µM.
Substance “Sos-C-Tail-8 truncated peptide (without GST) (from UniProt Q07889)” returned an equilibrium dissociation constant (Kd) of 297 µM.

In general, Kd refers to a measure of binding affinity in units of concentration.
